Assay [1] deals with cynomolgus TIM-3 Fc fusion antigen (Sino Biologicals) (cynomolgus monkey (Macaca fascicularis)). Put plainly: ELISA; TIM-3 Fc fusion coated at 1 µg/ml, antibody titrated 2-fold from 1000 nM, HRP secondary. A general note: An ELISA detects its analyte on a solid surface through an enzyme-linked reagent.
The target is the same in assay [2]. The assay is described as follows: ELISA; EC50 on cynomolgus TIM-3 over EC50 on human TIM-3.

Sequence of cynomolgus TIM-3 Fc fusion antigen (Sino Biologicals) (cynomolgus monkey (Macaca fascicularis)) (chain, as listed by the source limits assumed): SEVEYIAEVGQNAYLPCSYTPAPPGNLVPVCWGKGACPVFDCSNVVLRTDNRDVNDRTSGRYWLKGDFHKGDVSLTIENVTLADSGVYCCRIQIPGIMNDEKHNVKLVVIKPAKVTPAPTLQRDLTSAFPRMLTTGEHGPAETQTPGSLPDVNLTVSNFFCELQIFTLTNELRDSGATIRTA

B1: antibody 19416 (antibody, V domains shown)
VH: QVQLVESGPGLVKPSQTLSLTCTVSGGSINSGGYYWSWIRQHPGKGLEWIGYIYYSGSIYYNPSLRSRLTISVDTSKNQFSLKLSSVTAADTAVYYCATPYYYGSGSYGDYWGQGTLVTVSS
VL: DIQMTQSPATLSLSPGERATLSCRASQSVNNYLAWYQQKPGQAPRLLIYDASNRATGIPARFSGSGSGTDFTLTISSLEPEDFAVYYCQQRSNWPITFGQGTRLEIK
Take B1: in assay [1], the EC50 (commonly the concentration needed to bring the measured effect to its halfway point) came to 9.42 nM. Moreover, the Ratio Cynomolgus/Human EC50 in assay [2] was found to be 47.

Source of the values: patent publication US20190276531A1.
